# From article PMC11860814
# Legend:
# [1] = biological target: fully trypsinized Cry1Ia protein (toxin) (Bacillus thuringiensis); test: SEC; Superdex-200 10/300 GL on an ÄKTA Explorer 100; sizes interpolated from protein standards (44-669 kDa); purified proteins loaded
# [2] = biological target: Cry1Ia trypsin intermediate (T-Int) (Bacillus thuringiensis); test: SEC
# [3] = biological target: Cry1Ia trypsin intermediate (T-Int) (Bacillus thuringiensis); test: SDS-PAGE under non-denaturing conditions; SDS-12%PAGE of SEC peak fractions; loading buffer without SDS or β-mercaptoethanol, heated at 50 °C for 3 min to preserve oligomers
# [4] = biological target: Cry1Ia gut fluid intermediate (GF-Int) (Bacillus thuringiensis); test: SEC
# [5] = biological target: Cry1Ia38 protoxin (Bacillus thuringiensis); test: SEC; Superdex-200 10/300 GL on an ÄKTA Explorer 100; sizes interpolated from protein standards (44-669 kDa); purified proteins loaded
# [6] = biological target: Cry1Ia38 protoxin (Bacillus thuringiensis); test: SDS-PAGE under non-denaturing conditions; SDS-12%PAGE of SEC peak fractions; loading buffer without SDS or β-mercaptoethanol, heated at 50 °C for 3 min to preserve oligomers
substance,measurement,setting,value
fully trypsinized Cry1Ia protein (toxin) (domain or fragment),stoichiometry N,[1],2
Cry1Ia trypsin intermediate (T-Int) (domain or fragment),stoichiometry N,[2],2
same,stoichiometry N,[3],2
Cry1Ia gut fluid intermediate (GF-Int) (domain or fragment),stoichiometry N,[4],2
Cry1Ia38 protoxin (natural protein),stoichiometry N,[5],2
same,stoichiometry N,[6],2
